Measured values taken from paper PMC9124243.
Where two headings read alike, the source gives them in different places.

How the values were obtained:
[1] = biological target: Mycobacterium tuberculosis DnaK, wild-type, full-length (M. tuberculosis) (UniProt P9WMJ9)
[2] = biological target: Mycobacterium tuberculosis DnaK, wild-type, full-length (M. tuberculosis) (UniProt P9WMJ9); remark: listed apart in the source

Substance	IC50 in DnaK-DnaJ2-GrpE ATPase dose-response assay [1] [µM]	IC50 in DnaK-DnaJ2-GrpE ATPase dose-response assay [2] [µM]
Pz-Val-Val-Pro-Leu-OH (2) (peptide)	192	
Pz-Val-Val-Pro-photoLeu-OMe (7) (peptide)		52.5
